The source of these data is the supplement of paper PMC12042874.

± gives the uncertainty stated by the source.

The nature of the data set: amyloid nucleation score (Sup35N fusion, yeast selection) (log enrichment); library NNK2; higher = more nucleation; inactive = no reads after selection. In a few lines: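 Yeast lacking psi expressed peptides of 20 random codons fused to Sup35N, received 100 μM copper sulfate for 24 hours, and were then grown for 7 days at 30°C on medium lacking adenine and uracil. Illumina sequencing of input and output plasmid inserts provided the reads. Nucleation scores are DiMSum log enrichments of output over input, centred on the mode of non-aggregating sequences. Any sequence with under 100 input reads was excluded.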
In the case of HNFVFLGKFAYTWKWMKMLS, the amyloid nucleation score entry was “inactive”.
As for HNKVLGSSHHKLRQIPTCMC, the amyloid nucleation score was 0.484 ± 0.8.
On to HNNFYPA, for which the amyloid nucleation score is -0.552 ± 0.35.
With HPDGYVHRVGSLN, the amyloid nucleation score was -0.235 ± 1.1.
For HPFMFKVCSTYFLNYLASCQ, the amyloid nucleation score amounted to 6.78 ± 0.074.
Regarding HPKAYARVTTK, the amyloid nucleation score was -0.068 ± 0.36.
To HPTSYVPSYLSFASKWLRVA belongs 0.571 ± 0.3; to HRHFCSLDGA, 0.076 ± 0.29; to HRLLVPDHTMYVSLKRKGLR, 0.092 ± 1.1.
Regarding HRPNCFRWPGLRVLFWYRK, the amyloid nucleation score was -0.326 ± 0.45.
Substance HSALWRLWEPAQP came in with an amyloid nucleation score of 0.552 ± 0.64.
As to HSLKNYSGYLLLRTNRCI, the amyloid nucleation score was found to be 0.135 ± 0.65.
HSSSDVCT returned an amyloid nucleation score of 5.295 ± 0.049.
Regarding HSYFRFTPSFLAARSKYLRH, the amyloid nucleation score was -0.498 ± 1.1.
As for HSYLKLVGLCKNSKRFNHNF, the amyloid nucleation score entry is “inactive”.
To HTHGGFSHRYGSRWGQYLSW belongs 5.53 ± 0.063; to HTTGFPFRGLGDIDSLAEQF, -0.217 ± 0.79; to HTYVRVYLRGELCHPNCMNA, 6.348 ± 0.032.
In the case of HVAQTS, the amyloid nucleation score amounted to 1.04 ± 0.4.
Consider HVAWGHFLLIHIFHVNYGYL, for which the amyloid nucleation score is -0.627 ± 1.1.
As to HVLNWTYSTRIDAGGKSIRM, the amyloid nucleation score is -0.631 ± 0.76.
On to HVLYDCMGVIIKSCHYLDLC, for which the amyloid nucleation score was -0.508 ± 0.37.
Consider HVMNGCGLYGQGSSRYYQTV, for which the amyloid nucleation score came to 0.957 ± 0.26.
To HVNRGYSLVTPRMEVDWQLS belongs 1.42 ± 0.15; to HVVGVNLYRTLGRVFHLWDS, -0.084 ± 0.76; to HVWLIGFNLFLYFITLVVWV, -0.459 ± 1.1.
Substance HYGTTFVISL displayed an amyloid nucleation score of 3.85 ± 0.1.
HYGVNESLIKRYNWLRGVIW displayed an amyloid nucleation score of 0.227 ± 1.1.
In turn, HYHTSISYR yielded an amyloid nucleation score of 4.77 ± 0.1.
HYKTMFRFVCHFCENGGDGL showed an amyloid nucleation score of 10.18 ± 0.06.
For the substance HYMSAHGRRRLKPQVFYT, the amyloid nucleation score result is “inactive”.
HYSRD: the amyloid nucleation score is -0.593 ± 1.1.
Turning to IACIEHWALGWLLCVSGVRV, the amyloid nucleation score turned out to be 0.534 ± 0.5.
As for IAFKLRSTLSQPRNTCVLWH, the amyloid nucleation score came out at 0.276 ± 1.
IAGYGVHTLVQCVV registered an amyloid nucleation score of 0.082 ± 1.
In the case of IAICVNARE, the amyloid nucleation score came to 0.838 ± 0.35.
In the case of IAKGPGALYRSKMRWSGFVL, the amyloid nucleation score was -0.817 ± 1.
Regarding IALFVGFLVDAKDEGIL, the amyloid nucleation score is -0.419 ± 0.26.
In turn, IARLASQSYLDMVADAEDTG displayed an amyloid nucleation score of 0.472 ± 0.49.
For IAVSMNEMGY, the amyloid nucleation score result is “inactive”.
ICCCFIWP showed an amyloid nucleation score of 7.044 ± 0.044.
For the substance ICGVKRKKNVILSYFISMEY, the amyloid nucleation score result was “inactive”.
As for ICGYEACNNIGP, the amyloid nucleation score is -1.12 ± 0.62.
Turning to ICLDLCNMKLEKGLS, the amyloid nucleation score was -1.55 ± 1.
To ICLHHDYGSGWWIIQSAWQI belongs 2.95 ± 0.076.
As for ICNALCLYSVNLLPGTLMGI, the amyloid nucleation score was found to be 7.49 ± 0.027.
To ICSYVTVCVRLGFCKLNAMM belongs 0.504 ± 0.51; to ICTFYDTGLWVIYSVTRKAR, -0.057 ± 0.65; to ICTGVSTHIEPRPLTELCFR, 2.6 ± 0.073.
ICWPSTVDEGLPFYLWIYAM came in with an amyloid nucleation score of 0.23 ± 0.39.
Turning to IDAELLGWFFPEDGFHFSAV, the amyloid nucleation score was -1.32 ± 1.1.
For the substance IDGRDSFCQGGNRTCSKGCC, the amyloid nucleation score was -0.303 ± 0.65.
With IDLAFLLAVAVEPGWRTEV, the amyloid nucleation score was -0.024 ± 1.
To IDPKEMTGDRQWVSFTVRRR belongs 0.574 ± 0.24; to IDPLKGMLD, -2 ± 0.78; to IDYQKMLVSDCGD, 0.363 ± 0.46.
As for IELGFFSGTVIVVSYWEFTR, the figure is -1.02 ± 1.
As for IEMHDINYNP, the figure is -0.596 ± 0.29.
On to IESSEQSWT, for which the amyloid nucleation score was -0.75 ± 0.36.
On to IETNTSGSPIVPKDDLYNSY, for which the amyloid nucleation score was -0.672 ± 0.55.
To IFAHSPLYMCGYADVYVHPT belongs “inactive”.
Substance IFCLPIKKRVMYNHGLTIFG returned an amyloid nucleation score of 0.461 ± 0.29.
For the substance IFDCCY, the amyloid nucleation score is -1.82 ± 1.1.
To IFDYSV belongs -0.874 ± 0.55; to IFEVRLPQELSSYSHFGGGC, 0.706 ± 0.74; to IFHSESALWRHRYMGYVMVR, -0.66 ± 0.45.
Take IFMAKFSEIPTGPVIIMFYL: the amyloid nucleation score entry was “inactive”.
To IFMRVHLSMIVELKTHPDI belongs 3.2 ± 0.056.
As for IFSISNFAITVSNTLTV, the figure is 1.06 ± 0.32.
IFSLDFSGYVSLYLQKMNVL showed an amyloid nucleation score of 0.815 ± 0.15.
On to IFSTFCFLSAILFSIFPYEP, for which the amyloid nucleation score entry was “inactive”.
For the substance IFSTGNVKGNLTR, the amyloid nucleation score is -0.491 ± 0.22.
Regarding IFVCNMFVSYNSGNSGWCSV, the amyloid nucleation score came out at 7.675 ± 0.042.
To IFVVCLGMDTVYLIGYYSPA belongs -1.25 ± 0.78; to IFVYY, -0.162 ± 0.4; to IGFYFLNRRKIFLASTGILM, “inactive”.
Take IGNDFNANM: the amyloid nucleation score is -0.754 ± 0.76.
To IGSEDPRHFRSVCWSYNDTL belongs -0.789 ± 0.61; to IGSWSTA, 0.367 ± 0.36; to IGTADDKVSNRQGEPTEMA, 0.681 ± 0.55.
With IGTVAPVDLTAYSRERLFRM, the amyloid nucleation score entry is “inactive”.
As for IGVRPCTMRC, the figure is 0.23 ± 0.29.
As for IGVSLTYKIQVSTRLFSTLY, the figure is 3.29 ± 0.15; as for IGWGYRWVRWL, -0.415 ± 0.5; as for IHIWGSLSIDIEFVCGRQAK, 1.99 ± 0.27.
Turning to IHNWIDSVERTALDMWERNA, the amyloid nucleation score stood at 1.98 ± 0.14.
In turn, IIACLTVNYCTGRCATLMFP gave an amyloid nucleation score of 6.365 ± 0.036.
To IIAEFDSGWSEAFDSCLGMS belongs -0.114 ± 0.54; to IIEIEGVCAFDWLRIFLILI, -1.27 ± 0.47.
Regarding IIFVFREYAINMKGVFK, the amyloid nucleation score came to 0.082 ± 1.
Regarding IIHDLSSFRKCSLHPDIGSS, the amyloid nucleation score was -0.373 ± 0.37.
To IIISYMFKHSWIKKGRHKLV belongs 0.597 ± 0.5; to IILFEYCEF, -0.613 ± 1.1.
With IIQISSYSALWFRW, the amyloid nucleation score was 0.724 ± 0.14.
With IIQRRK, the amyloid nucleation score is -0.157 ± 0.27.
As for IIVIRD, the figure is 0.005 ± 0.36; as for IIVYVDDSPLYAVSRLQSYC, 0.758 ± 0.13.
As for IKFTLHCYDCVVFNC, the figure is 6.937 ± 0.056; as for IKHVEDASGKRTDSRLFTRD, -0.545 ± 0.54; as for IKISYTLMASEAVNTFS, -1.22 ± 1.1.
Consider IKKIRYPRFLVVLN, for which the amyloid nucleation score result was “inactive”.
With IKLYCELCYFSNFWKIFTLR, the amyloid nucleation score entry was “inactive”.
In the case of IKTVIRCLDLVSFHRYGIGV, the amyloid nucleation score is -0.401 ± 0.31.
As for IKYFY, the figure is -0.939 ± 0.49.
The substance IKYRFGGLGPRPPNGRRFE yielded an amyloid nucleation score of 0.635 ± 0.65.
For IKYSVVNRHRVGLSVTAKW, the amyloid nucleation score was -0.205 ± 0.37.
In turn, IKYYVTVWSLESDTAWVGGL returned an amyloid nucleation score of 0.196 ± 0.45.
To ILDFKWNYYG belongs 3.05 ± 0.11; to ILFCLF, 8.143 ± 0.033; to ILICKILKTRMKVSRDMVMK, “inactive”.
ILISLESSPISGMKCVLQRF had an amyloid nucleation score of 2.85 ± 0.12.
For the substance ILKIAARIYLGLWTVFDWCG, the amyloid nucleation score came to 0.523 ± 0.27.
As for ILKRMLRCIYNFNISVWIIR, the figure is -0.578 ± 0.31; as for ILKSKVSGPIYVSE, 0.848 ± 0.23; as for ILLCCPVLFPINMKGSVCDK, 8.463 ± 0.044.
For the substance ILLVILLTRIVKRSFFYRGF, the amyloid nucleation score result is “inactive”.
Consider ILLYRNAYWYPGKSSICLTS, for which the amyloid nucleation score was -1.06 ± 0.49.
Consider ILQGADLKLVYFVNHRMERV, for which the amyloid nucleation score amounted to 1.24 ± 0.21.
In turn, ILQWEVSWLCKNHT yielded an amyloid nucleation score of 0.683 ± 0.35.
In the case of ILSLRNR, the amyloid nucleation score is -0.965 ± 1.
In the case of ILVREHFVSIKFLSR, the amyloid nucleation score was -1.21 ± 1.1.
On to ILVSTIEGCLDYNLCFLAGL, for which the amyloid nucleation score came to 1.67 ± 0.12.
As for ILWCFRSVMA, the figure is -0.327 ± 0.28; as for ILWGERRIDSRSWKIVARYF, -0.664 ± 1.1; as for ILYGDVWLRFKRFWLSWMPA, -0.055 ± 0.55.
The substance ILYGWGRMMCRPLPQGYWMV yielded an amyloid nucleation score of 0.449 ± 0.28.
As for IMCEGSTPDFIIYSCMLLVY, the amyloid nucleation score was -1.41 ± 0.42.
As for IMFASKHCSVGVMLKIGRTF, the figure is 0.209 ± 0.33; as for IMGHYVYDVVR, -0.352 ± 0.36; as for IMSNGDRNAYYVKLHES, 0.123 ± 0.33.
For the substance INFLNWFNLFDGYMFSLSAY, the amyloid nucleation score entry was “inactive”.
As for INGCFDHPTSIETFSEEMWM, the amyloid nucleation score is -0.533 ± 0.55.
In turn, INHKQGCSTVWPVAKVCMLV showed an amyloid nucleation score of 0.201 ± 1.
As for INNQGFIRPDNDSCYRFWIS, the amyloid nucleation score result was “inactive”.
For INQFIFGTKRMSKNYVSMVR, the amyloid nucleation score result is “inactive”.
As to INRKGRRI, the amyloid nucleation score was determined as 0.007 ± 0.79.
For the substance INSASESKGKGIILSTNGDS, the amyloid nucleation score is -0.717 ± 0.39.
For INSSRSFVYDFNTWNFQDVR, the amyloid nucleation score was -0.089 ± 0.79.
To INTCIWASLYLSMAHEYRI belongs -0.793 ± 0.62.
